According to patent US8323971B2, “Differentiation of pluripotent cells into primary germ layer progenitors” (Cambridge Enterprise Limited, priority 2006, dated 2012):

What was measured:
Format in all cases: cell-based, human
[1] = system: hESC derived EBs; assay: Incidence of beating structures in EBs plated in MEF media; conditions: over-expressing EBs in MEF medium containing FBS
Experimental: Lefty, Cerb-S expressing and wildtype EBs were plated in MEF media, and beating EBs were counted. Lefty expressing EBs generated fewer beating structures as compared to wildtype EBs (NS=not significant) (Scale bar=[…]).
In some experiments, hESCs were incubated in DMEM supplemented with 10% FCS and 1 mM glutamine (MEF media) to promote mesoderm formation. EBs were then grown for 12-16 days at 37° C. at […] before being harvested for histological or molecular marker analysis.
To evaluate further the differentiation potential of Lefty and Cerb-S overexpressing hESCs, EBs were cultured in MEF medium containing fetal bovine serum (FBS), which promotes the formation of mesoderm lineages including cardiomyocytes, as recognised by rhythmically beating structures. […] Nodal expressing EBs grown in these conditions were not seen to generate such beating structures, and instead maintained expression of the pluripotency marker Oct-4 (FIG. 7).

[2] = system: hESCs; assay: Quantitation of β-tubulin III positive cells in monolayer differentiation; conditions: expressing hESCs differentiated in CDM, monolayer, 24 days
Experimental: In some experiments, Wildtype and Lefty expressing hESCs were grown on fibronectin in FGF (12 ng/ml)/Activin (20 ng/ml) as a monolayer in the absence of a feeder layer (Vallier et al., 2005). When cells were 70-80% confluent medium was changed to either CDM only, CDM/FGF (12 ng/ml), CDM/Noggin 200 ng/ml, CDM/SU5402 and differentiated for 24 days.
To quantify the neurogenic potential of Lefty expressing hESCs, we cultured Lefty expressing hESCs in feeder-free conditions as a monolayer in CDM supplemented with Activin and FGF as described previously (Vallier et al., 2005). When cells reached 70-80% confluency, medium was changed to CDM only, CDM plus FGF (12 ng/ml) (CDM/FGF), CDM plus the BMP inhibitor Noggin (200 ng/ml) ([…]) (CDM/SU5402), and cells were cultured in these conditions for 24 days
The incidence of neural differentiation was determined by counting the number of β-tubulin III positive cells in random fields.

[3] = system: hESC derived EBs; assay: Quantitation of rosette structures in EBs; conditions: expressing EBs grown in CDM
Experimental: (§1) Lefty or Cerb-S expressing hESCs (as well as wildtype H9 and hSF-6 hESCs) were grown in 6 cm dishes (Corning), on mouse feeders. When confluent, hESCs were passaged using collagenase 1 mg/ml, as previously described (Schatten et al., 2005) and cultured in non-adherent conditions in CDM supplemented with either SU5402 (Calbiochem; 10 μM), SB431542 (Tocris; 20 μM), FGF-2 (R&D Systems; 12 ng/ml) or Noggin 200 ng/ml.
To investigate the development of EBs derived from Lefty or Cerb-S overexpressing hESCs, we grew the cells as EBs in suspension culture using CDM medium. As previously observed (Vallier et al., 2004a), wildtype control EBs grown in CDM developed almost exclusively as simple spheres with no apparent tissue organisation. […] Hematoxylin/Eosin staining of sectioned EBs confirmed that these folded structures found in Lefty overexpressing EBs were neuroectoderm-like, with internal epithelial rosettes. Lefty and Cerb-S expressing EBs contained respectively 5 times (Pb 0.05) and 2 times (not significant, N.S.) more epithelial rosettes than control EBs (FIG. 5).

[4] = system: hESC derived EBs; assay: Real time qPCR / RT-PCR of neuroectoderm and pluripotency markers in EBs; conditions: expressing EBs compared to wildtype
Experimental: Four independent batches of WT and Lefty EBs were used for this analysis.
Five independent batches of DMSO- and SB431542-treated EBs were used for this analysis.
as §1
For some RT-PCR experiments, 50-100 ng of RNA were used for each RT-PCR reaction, using the OneStep RT-PCR kit according to manufacturer instructions. For real-time PCR, 1 μg RNA was reverse-transcribed using the Qiagen QuantiTect Reverse Transcription kit. 1/20-1/40 of each cDNA reaction was used for each real-time PCR reaction using the QuantiTect SYBR Green PCR Kit (Qiagen) according to manufacturer instructions. Relative quantification of gene expression was done by normalising the detected levels of gene of interest mRNA to those of the house-keeping GAPDH gene. All primers were purchased from Qiagen, with the exception of Xenopus Cerb-S: Forward 5′-[…]-3′ (SEQ ID NO: 1); Reverse 5′-ATGGTGCAGGGTAG TAGATG-3′ (SEQ ID NO: 2). Mouse Lefty2: Forward 5^r-[…]-3′ (SEQ ID NO: 3); Reverse 5′-[…]-3′ (SEQ ID NO: 4).

B1: Lefty: mouse Lefty2, Nodal inhibitor stably over-expressed in hESCs (protein, UniProt P57785 78-368, looked up)
Left-right determination …: FSQNFREVAGRFLMSETSTHLLVFGMEQRLPPNSELVQAVLRLFQEPVPRTALRRFERLSPHSARARVTIEWLRVREDGSNRTALIDSRLVSIHESGWKAFDVTEAVNFWQQLSRPRQPLLLQVSVQREHLGPGTWSAHKLVRFAAQGTPDGKGQGEPQLELHTLDLKDYGAQGNCDPEVPVTEGTRCCRQEMYLDLQGMKWAENWILEPPGFLTYECVGSCLQLPESLTIGWPFLGPRQCVASEMTSLPMIVSVKEGGRTRPQVVSLPNMRVQTCSCASDGALIPRGIDL
decrease of incidence of rhythmically contracting structures compared to wildtype EBs [1]: ~79%
β-tubulin III positive cells/field [2]: 69±13 cells/field
epithelial rosettes relative to control EBs [3]: 5 times
Nestin, Sox3 and Sox1 expression (real-time qPCR) [4]: increased average levels
